Among the data in publication PMC10786891, “Massively parallel profiling of RNA-targeting CRISPR-Cas13d” are Kd values, retold here.

The labels stand for the following.
T1: EsCas13d, nuclease-dead (Eubacterium siraeum, UniProt B0MS50, R295A;H300A;R849A;H854A)
T1 sequence: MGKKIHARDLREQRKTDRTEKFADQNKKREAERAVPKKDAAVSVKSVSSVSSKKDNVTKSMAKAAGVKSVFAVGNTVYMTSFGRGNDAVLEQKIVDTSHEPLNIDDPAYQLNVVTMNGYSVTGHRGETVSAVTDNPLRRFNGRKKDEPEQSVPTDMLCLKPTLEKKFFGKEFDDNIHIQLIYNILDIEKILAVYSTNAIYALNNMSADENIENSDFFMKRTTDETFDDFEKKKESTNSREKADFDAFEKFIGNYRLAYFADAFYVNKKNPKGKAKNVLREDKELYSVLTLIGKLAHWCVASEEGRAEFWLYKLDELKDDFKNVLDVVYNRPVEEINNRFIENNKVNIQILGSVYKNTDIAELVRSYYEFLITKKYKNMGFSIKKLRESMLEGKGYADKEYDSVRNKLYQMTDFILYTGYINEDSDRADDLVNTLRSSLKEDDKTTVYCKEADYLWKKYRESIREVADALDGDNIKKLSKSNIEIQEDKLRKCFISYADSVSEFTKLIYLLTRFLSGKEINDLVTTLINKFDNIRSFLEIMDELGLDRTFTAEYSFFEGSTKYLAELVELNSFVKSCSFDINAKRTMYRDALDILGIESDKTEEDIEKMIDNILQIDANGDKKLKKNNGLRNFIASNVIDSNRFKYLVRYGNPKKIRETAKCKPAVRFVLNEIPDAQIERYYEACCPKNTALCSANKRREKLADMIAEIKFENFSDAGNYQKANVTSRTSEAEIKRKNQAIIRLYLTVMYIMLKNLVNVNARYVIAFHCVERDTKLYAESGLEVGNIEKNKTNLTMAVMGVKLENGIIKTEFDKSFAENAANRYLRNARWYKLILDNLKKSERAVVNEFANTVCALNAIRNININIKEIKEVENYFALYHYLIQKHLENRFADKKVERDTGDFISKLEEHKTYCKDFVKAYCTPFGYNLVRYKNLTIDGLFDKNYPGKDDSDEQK

B1: target 1 MT 5'PFS GCU 3'PFS CGA (mixed)
RNA 1: CACCCGUGCAAAAAUGCAGGGGUCUAAAACUGAGCGGAUAACCUCUCUAUGG
RNA 2: GGGAAUGGAUCCACAUCUACGAAUUCGCUCCAUAGAGAGGUUAUCCGCUCACGAAGAUCGGAAGAGCACACGU
B2: target 1 MT 5'PFS GUG 3'PFS GGA (mixed)
RNA 1: B1 RNA 1
RNA 2: B1 RNA 2 with C28U, U29G, C52G
B3: target 1 MT 5'PFS UAU 3'PFS ACA (mixed)
RNA 1: B1 RNA 1
RNA 2: B1 RNA 2 with G27U, C28A, C52A, G53C
B4: target 1 MT 5'PFS GCC 3'PFS CAU (mixed)
RNA 1: B1 RNA 1
RNA 2: B1 RNA 2 with U29C, G53A, A54U
B5: target 1 A9U,U19A (mixed)
RNA 1: B1 RNA 1
RNA 2: B1 RNA 2 with C28U, U29A, U33A, A43U, G53C, A54G
B6: target 1 MT 5'PFS GUC 3'PFS UAA (mixed)
RNA 1: B1 RNA 1
RNA 2: B1 RNA 2 with C28U, U29C, C52U, G53A
B7: target 1 MT 5'PFS GUC 3'PFS UAU (mixed)
RNA 1: B1 RNA 1
RNA 2: B1 RNA 2 with C28U, U29C, C52U, G53A, A54U
B8: target 1 insU 3' of 7,insA 3' of 3 (mixed)
RNA 1: B1 RNA 1
RNA 2: GGGAAUGGAUCCACAUCUACGAAUUCGUACCAUAGAGAGGUUAUCUCGCUACACCGAGAUCGGAAGAGCACACGU
B9: target 1 MT 5'PFS GGC 3'PFS CUU (mixed)
RNA 1: B1 RNA 1
RNA 2: B1 RNA 2 with C28G, U29C, G53U, A54U
B10: target 1 MT 5'PFS GUC 3'PFS UAC (mixed)
RNA 1: B1 RNA 1
RNA 2: B1 RNA 2 with C28U, U29C, C52U, G53A, A54C
B11: target 1 MT 5'PFS GGC 3'PFS CUC (mixed)
RNA 1: B1 RNA 1
RNA 2: B1 RNA 2 with C28G, U29C, G53U, A54C
B12: target 1 MT 5'PFS GUC 3'PFS UAG (mixed)
RNA 1: B1 RNA 1
RNA 2: B1 RNA 2 with C28U, U29C, C52U, G53A, A54G
B13: target 1 A14C,A16G (mixed)
RNA 1: B1 RNA 1
RNA 2: B1 RNA 2 with C28U, U29A, A36G, A38C, G53C, A54G
B14: target 1 MT 5'PFS ACC 3'PFS CUC (mixed)
RNA 1: B1 RNA 1
RNA 2: B1 RNA 2 with G27A, U29C, G53U, A54C
B15: target 1 MT 5'PFS GCC 3'PFS CAC (mixed)
RNA 1: B1 RNA 1
RNA 2: B1 RNA 2 with U29C, G53A, A54C
B16: target 1 MT 5'PFS AGU 3'PFS UUG (mixed)
RNA 1: B1 RNA 1
RNA 2: B1 RNA 2 with G27A, C28G, C52U, G53U, A54G
B17: target 1 MT 5'PFS CCA 3'PFS AAU (mixed)
RNA 1: B1 RNA 1
RNA 2: B1 RNA 2 with G27C, U29A, C52A, G53A, A54U
B18: target 1 insU 3' of 15,insG 3' of 6 (mixed)
RNA 1: B1 RNA 1
RNA 2: GGGAAUGGAUCCACAUCUACGAAUUCGUACCAUAGAGUAGGUUAUCCGGCUCACCGAGAUCGGAAGAGCACACGU
B19: target 1 MT 5'PFS AAG 3'PFS CUC (mixed)
RNA 1: B1 RNA 1
RNA 2: B1 RNA 2 with G27A, C28A, U29G, G53U, A54C
B20: target 1 MT 5'PFS AAG 3'PFS CUG (mixed)
RNA 1: B1 RNA 1
RNA 2: B1 RNA 2 with G27A, C28A, U29G, G53U, A54G
B21: target 1 MT 5'PFS GCC 3'PFS ACA (mixed)
RNA 1: B1 RNA 1
RNA 2: B1 RNA 2 with U29C, C52A, G53C
B22: target 1 MT 5'PFS AUA 3'PFS CGG (mixed)
RNA 1: B1 RNA 1
RNA 2: B1 RNA 2 with G27A, C28U, U29A, A54G
B23: target 1 MT 5'PFS GUC 3'PFS ACU (mixed)
RNA 1: B1 RNA 1
RNA 2: B1 RNA 2 with C28U, U29C, C52A, G53C, A54U
B24: target 1 MT 5'PFS UAG 3'PFS AGU (mixed)
RNA 1: B1 RNA 1
RNA 2: B1 RNA 2 with G27U, C28A, U29G, C52A, A54U
B25: target 1 MT 5'PFS UAU 3'PFS ACC (mixed)
RNA 1: B1 RNA 1
RNA 2: B1 RNA 2 with G27U, C28A, C52A, G53C, A54C
B26: target 1 MT 5'PFS GCC 3'PFS ACU (mixed)
RNA 1: B1 RNA 1
RNA 2: B1 RNA 2 with U29C, C52A, G53C, A54U
B27: target 1 MT 5'PFS UAU 3'PFS ACU (mixed)
RNA 1: B1 RNA 1
RNA 2: B1 RNA 2 with G27U, C28A, C52A, G53C, A54U
B28: target 1 MT 5'PFS AGC 3'PFS UAG (mixed)
RNA 1: B1 RNA 1
RNA 2: B1 RNA 2 with G27A, C28G, U29C, C52U, G53A, A54G
B29: target 1 MT 5'PFS GCA 3'PFS UUA (mixed)
RNA 1: B1 RNA 1
RNA 2: B1 RNA 2 with U29A, C52U, G53U
B30: target 1 MT 5'PFS CCG 3'PFS AUC (mixed)
RNA 1: B1 RNA 1
RNA 2: B1 RNA 2 with G27C, U29G, C52A, G53U, A54C
B31: target 1 MT 5'PFS AUA 3'PFS AGG (mixed)
RNA 1: B1 RNA 1
RNA 2: B1 RNA 2 with G27A, C28U, U29A, C52A, A54G
B32: target 1 MT 5'PFS GUC 3'PFS ACA (mixed)
RNA 1: B1 RNA 1
RNA 2: B1 RNA 2 with C28U, U29C, C52A, G53C
B33: target 1 MT 5'PFS UAG 3'PFS AGA (mixed)
RNA 1: B1 RNA 1
RNA 2: B1 RNA 2 with G27U, C28A, U29G, C52A
B34: target 1 MT 5'PFS AUG 3'PFS CGG (mixed)
RNA 1: B1 RNA 1
RNA 2: B1 RNA 2 with G27A, C28U, U29G, A54G
B35: target 1 MT 5'PFS GGC 3'PFS CUG (mixed)
RNA 1: B1 RNA 1
RNA 2: B1 RNA 2 with C28G, U29C, G53U, A54G
B36: target 1 MT 5'PFS GCC 3'PFS ACG (mixed)
RNA 1: B1 RNA 1
RNA 2: B1 RNA 2 with U29C, C52A, G53C, A54G
B37: target 1 MT 5'PFS GGC 3'PFS CUA (mixed)
RNA 1: B1 RNA 1
RNA 2: B1 RNA 2 with C28G, U29C, G53U

Changes are numbered by the printed parent chain. In names and notes the source's numbering stands.

In this data set the target is T1, EsCas13d, nuclease-dead. Put plainly: crRNA (strand 1, pre-loaded); Mg2+; 40 mM Tris-HCl pH 7.5, 150 mM NaCl, 6 mM MgCl2, 1 mM DTT, 0.1% Tween-20, 0.2 mg/ml BSA; 25 C; 10 min per concentration, then washed. As to conditions: tags: His6-TwinStrep-SUMO cleaved; N-terminal SNAP kept (SNAP-Surface 488); label: 3' end held by stalled T7 RNA polymerase.
The molecule B1 registered a Kd of 49.5 ± 17 nM.

Molecule B2 displayed a Kd of 20.3 ± 2.5 nM. This Kd lies about 2.4-fold lower than the previous one.

The molecule B3 gave a Kd of 54 ± 20.5 nM. This Kd lies about 2.7-fold higher than the previous one.

Regarding B4, the Kd is approximately 12 nM.

The molecule B5 yielded a Kd of 52 ± 10 nM.

In the case of B6, the dissociation constant Kd was 16 ± 4.3 nM.

For B7, the Kd came to 16.1 ± 3.3 nM.

Molecule B8 had a Kd of 20.4 ± 1.3 nM.

Molecule B9 displayed a Kd of 11.3 ± 2.25 nM.

As to B10, the Kd amounted to 15.1 ± 3.8 nM.

Take B11: the Kd was found to be 17.1 ± 7.05 nM.

The molecule B12 registered a Kd of 17.6 ± 3.35 nM.

B13 came in with a Kd of approximately 90 nM.

As to B14, the Kd is approximately 12 nM.

With B15, the Kd is approximately 34 nM.

B16 yielded a Kd of 47 ± 17 nM.

B17 had a Kd of 7.3 ± 2.35 nM.

For the molecule B18, binding was characterised by a dissociation constant (Kd) of 14.9 ± 0.8 nM.

B19: the Kd was 38.5 ± 13.5 nM.

Molecule B20 showed a Kd of 16 ± 5 nM.

On to B21, for which the Kd is approximately 64 nM.

B22 displayed a Kd of 27 ± 6.5 nM.

Regarding B23, binding was put at a Kd of 16.9 ± 2.05 nM.

B24 showed a Kd of 56.5 ± 16 nM.

As to B25, the affinity, expressed as Kd, was 36 ± 15 nM.

The molecule B26 showed a dissociation constant Kd of 11.2 ± 2.05 nM.

B27 gave a Kd of 29 ± 5 nM.

For B28, the Kd was found to be 17 ± 6.5 nM.

Turning to B29, the Kd was 7.65 ± 1.2 nM.

As to B30, the Kd is approximately 8.65 nM.

Turning to B31, the Kd was approximately 90 nM.

In the case of B32, the Kd was approximately 56 nM.

As to B33, binding was put at a Kd of 30 ± 5.5 nM.

Consider B34, for which the affinity, expressed as Kd, was 47.5 ± 22.5 nM.

With B35, the Kd stood at 17.3 ± 4 nM.

B36 had a Kd of 13.9 ± 3.7 nM.

Turning to B37, the Kd worked out at 15.2 ± 4.25 nM.

As usually defined, the Kd is the concentration at which binding is half-saturated. Read a high Kd as a looser complex.
